In US20120276537:

Test system: ZFNRosa (Rosa26-specific zinc finger nuclease pair) (synthetic construct)
Experiment: cell_activity
Details: mouse zygote mRNA microinjection; 13 of 58 pups lost XbaI site; ZFN pair, half-sites of the monomers not stated; homologous recombination also seen (pup 22 …)

“TGCAACTCCAGTCTTTCTAGAAGATGGGCGGGAGTC (double strand) [Rosa26 intron 1 ZFN target site]” was tested. Which activity (% of pups with NHEJ XbaI loss) did it give?
The activity (% of pups with NHEJ XbaI loss) was 22.
